Laboratory results taken from paper PMC2212760 (The Journal of Experimental Medicine, 2005).

Key:
FPRL2 [1] = target: T1, FPRL2 (Homo sapiens, UniProt P25089); experiment: aequorin-based functional assay on FPRL2-expressing CHO-K1 cells; conditions: aequorin assay (FMLP, SHAAG: aequorin and cAMP assays)
T1 sequence (P25089 1-353): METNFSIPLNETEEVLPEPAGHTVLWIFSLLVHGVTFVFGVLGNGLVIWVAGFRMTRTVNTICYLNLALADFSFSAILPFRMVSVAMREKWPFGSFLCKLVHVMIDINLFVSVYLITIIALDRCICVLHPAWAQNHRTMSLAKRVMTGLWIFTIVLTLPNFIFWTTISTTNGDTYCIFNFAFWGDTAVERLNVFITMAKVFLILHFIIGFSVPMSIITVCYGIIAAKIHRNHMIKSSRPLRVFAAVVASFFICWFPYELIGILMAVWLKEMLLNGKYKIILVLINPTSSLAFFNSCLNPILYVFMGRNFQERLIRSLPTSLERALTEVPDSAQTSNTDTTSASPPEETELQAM

FPRL2 [2] = target: T1, FPRL2; conditions: not depicted

- activity on FPRL2 (FPRL2 [1]): totally inactive
- activity in FPRL2 binding assay (FPRL2 [2]): totally inactive
Sequence: NSLFGSVETWPWQVL [F2L[7–21]]
